From PMC1669761 (Nucleic Acids Research, 2006) come the findings set out here.

The target of this experiment is T1, purified His-tagged Smad4 (human, UniProt Q13485 1-552).
T1 sequence (looked up): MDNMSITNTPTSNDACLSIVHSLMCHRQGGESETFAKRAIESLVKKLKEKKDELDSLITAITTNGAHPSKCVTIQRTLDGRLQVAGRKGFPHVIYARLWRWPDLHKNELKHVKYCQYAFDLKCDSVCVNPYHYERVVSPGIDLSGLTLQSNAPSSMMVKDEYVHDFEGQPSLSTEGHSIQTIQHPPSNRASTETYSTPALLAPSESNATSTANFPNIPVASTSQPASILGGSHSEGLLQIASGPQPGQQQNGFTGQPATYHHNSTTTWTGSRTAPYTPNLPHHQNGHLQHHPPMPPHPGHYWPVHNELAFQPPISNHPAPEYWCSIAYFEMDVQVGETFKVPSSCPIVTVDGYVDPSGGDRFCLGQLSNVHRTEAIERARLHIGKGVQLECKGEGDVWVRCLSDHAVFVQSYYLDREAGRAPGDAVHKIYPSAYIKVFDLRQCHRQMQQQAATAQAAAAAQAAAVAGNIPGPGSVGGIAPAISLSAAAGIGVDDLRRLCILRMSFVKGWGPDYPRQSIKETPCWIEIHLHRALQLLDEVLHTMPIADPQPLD
In words: pull-down.

B1: GST-RBPMS(1–100) (domain or fragment)
chain: not shown
With B1, the binding result is “binds”.
